According to patent publication US20190330358A1:

Experiments:
[1] = target: human AITR expressed on the cell surface (human) (UniProt Q9Y5U5); test: flow cytometry on iTreg cells, surface AITR
[2] = target: human AITR expressed on the cell surface (human) (UniProt Q9Y5U5); test: flow cytometry on AITR-5 cells (HEK293 overexpressing human AITR); unstained AITR-5 panel: Q1 0.98
[3] = target: human AITR expressed on the cell surface (human) (UniProt Q9Y5U5); test: flow cytometry on human iTreg cells; average of TRX518 and MK4166

Chain of human AITR expressed on the cell surface (human) (Q9Y5U5 26-241): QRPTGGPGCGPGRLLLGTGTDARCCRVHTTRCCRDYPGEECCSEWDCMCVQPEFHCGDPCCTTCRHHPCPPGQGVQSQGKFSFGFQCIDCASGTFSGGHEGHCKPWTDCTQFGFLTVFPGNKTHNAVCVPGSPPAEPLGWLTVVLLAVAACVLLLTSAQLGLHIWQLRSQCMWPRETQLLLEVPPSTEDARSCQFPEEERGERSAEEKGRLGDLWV

Substance | % of iTreg cells in the upper right quadrant (CD4+, antibody-positive) [1] [%] | % of AITR-5 cells in Q1 (antibody-positive) [2] [%] | % of iTreg cells recognized as positive for human AITR [3] [%]
Isotype control (antibody) | 0.79 | 1.95 | –
TRX518 (antibody) | 20.8 | – | 19
MK4166 (Merck's anti-GITR antibody) | 17.1 | – | 19
